{"source": "the RNAGym collection of RNA variant scans (doi:10.7554/elife.80360)", "parents": {"B1": {"name": "HDV Ribozyme (parent)", "chain": "GGCCGGCAUGGUCCCAGCCUCCUCGCUGGCGCCGGCUGGGCAACAUUCCGAGGGGACCGUCCCCUCGGUAAUGGCGAAUGGGACCCA"}}}
{"variants_of": "B1", "assay": "self-cleavage, relative activity (ratio to wild type); higher = more cleavage; co-transcriptional"}
{"variant": "GGCCGGCAUGGUCCCAGCCUCCUCGCUGGCGCCGGCUGGGCAACAUUCCGAGGGGUCCGUCCCCUCGGUAAAGGCGAAUGGGACCCA", "note": "[A56U U72A]", "self-cleavage": 0.764}
{"variant": "GGCCGGCUUGGUCCCAGCCUCCUCGCUGGCGCCGGCUGGGCAACAUUCCGAGGGGACCGUCCCCUCGGUAAUGGCGAAUCGGACCCA", "note": "[A8U G80C]", "self-cleavage": 0.128}
{"variant": "GGCCGGCAUGGUCCCAGCCUCCUCGCUGGCGCCGGCUAGGCAAGAUUCCGAGGGGACCGUCCCCUCGGUAAUGGCGAAUGGGACCCA", "note": "[G38A C44G]", "self-cleavage": 0.0449}
{"variant": "GGCCGGCAUGGUCCCAGCCUCCUCGCUGGCGCCGGCUGGGCAACAUUCCGAGGGGACCGGUCCCUCGGUAAUGGCGAAUGGGACCCA", "note": "[U60G C61U]", "self-cleavage": 1.06}
{"variant": "GGCCGGCAUGGUCCCAGCCUCCUCGCUGGCGCCGGCUGGGCAACAUUCCGAGGGGACCGUCCCCUCGGUAAUGACUAAUGGGACCCA", "note": "[G74A G76U]", "self-cleavage": 0.727}
{"variant": "GGCCGGCAUGGUCCCAGCCUCCUCGCUGGCGCCGGCUGGGCAACAUUCCGAGGGGACCGUCCCCUCGGUAAUGGCGAAUGGUACCCU", "note": "[G82U A87U]", "self-cleavage": 0.462}
{"variant": "GGCCGGCAUGGUCCCAGCCUCCUCGGUGGCGCCGGCUGGGCAACAUUCCGAGGGGACCGGCCCCUCGGUAAUGGCGAAUGGGACCCA", "note": "[C26G U60G]", "self-cleavage": 0.525}
{"variant": "GGCCGGCAUGGUCCCAGCCUCCUCGCUGGCGCCGGCUGGGCAACAUUCCGAGGGAACCGUCCCCUCGGUCAUGGCGAAUGGGACCCA", "note": "[G55A A70C]", "self-cleavage": 1.06}
{"variant": "GGCCGGCAUGGUCCCAGCCUCCUCGCUGGCGCCGGCUGCGCAACAUUCCGAGGGGACCAUCCCCUCGGUAAUGGCGAAUGGGACCCA", "note": "[G39C G59A]", "self-cleavage": 0.23}
{"variant": "GGCCGGCAUGGUCCCAGCCUCCUCGCUGUUGCCGGCUGGGCAACAUUCCGAGGGGACCGUCCCCUCGGUAAUGGCGAAUGGGACCCA", "note": "[G29U C30U]", "self-cleavage": 0.0779}
{"variant": "GGCCGGCAUGGUCCCAGCCUCCUCGAUGGCGCCGGCAGGGCAACAUUCCGAGGGGACCGUCCCCUCGGUAAUGGCGAAUGGGACCCA", "note": "[C26A U37A]", "self-cleavage": 0.166}
{"variant": "GGCCGGCAUGGUCCCAGUCUCCUCGCUGGCGCCGGCUGGGCACCAUUCCGAGGGGACCGUCCCCUCGGUAAUGGCGAAUGGGACCCA", "note": "[C18U A43C]", "self-cleavage": 0.295}
{"variant": "GGCCGGCAUGGUCCCAGCCUCCUCGCUGGCGCCUGCUGGGCAACAUUCCGAGGGGACCGUCCCCUCGGUAAUGUCGAAUGGGACCCA", "note": "[G34U G74U]", "self-cleavage": 0.133}
{"variant": "GGCCGGCAUGGUCCCAUCCUCCUCGCUGGCGCCGGCUGGGCAACAUUCCGAGGGGACCGUCCCCUCGGUAAUGGCGAAUGAGACCCA", "note": "[G17U G81A]", "self-cleavage": 0.415}
{"variant": "GGCCGGCAUGGUCCCAGCCUCCUCGCUCGCGCCGGAUGGGCAACAUUCCGAGGGGACCGUCCCCUCGGUAAUGGCGAAUGGGACCCA", "note": "[G28C C36A]", "self-cleavage": 0.0462}
{"variant": "GGCCGGCAUGGUCCCAGCCUCCUCGCUGGCGCCGGCUGGGCAACAUUCGGAGGGGACCGGCCCCUCGGUAAUGGCGAAUGGGACCCA", "note": "[C49G U60G]", "self-cleavage": 0.762}
{"variant": "GGCCGGCAUGAUCCCAGCCUCCUCGCUGGCGCCGGCUGGGCAACAUUCCGAGGGGAUCGUCCCCUCGGUAAUGGCGAAUGGGACCCA", "note": "[G11A C57U]", "self-cleavage": 0.256}
{"variant": "GGCCGGCAUGGUCCCAGCCUCCUCGCUGGCGCCGGCUGGGCAACAUUCCGAGGCGACCGUCCCCUCGGUAGUGGCGAAUGGGACCCA", "note": "[G54C A71G]", "self-cleavage": 0.646}
{"variant": "GGCCGGAAUGGUCCCAGCCUCCUCGCUGGCGCCGGCUGGGCAACAUUCCGAGGGGACCGUCCCCUAGGUAAUGGCGAAUGGGACCCA", "note": "[C7A C66A]", "self-cleavage": 0.539}
{"variant": "GGCCGGCAUGGUCCCAGCCUACUCGCUGGCGCCGGCUGGGCAACAUUCCGAGGGGACCGUCCCCUCGGUAAUGGUGAAUGGGACCCA", "note": "[C21A C75U]", "self-cleavage": 0.0297}
{"variant": "GGCCGGCAUGGUCCCAACCUCCUCGCUGGCGCCGGCUGGGCAUCAUUCCGAGGGGACCGUCCCCUCGGUAAUGGCGAAUGGGACCCA", "note": "[G17A A43U]", "self-cleavage": 0.237}
{"variant": "GGGCGACAUGGUCCCAGCCUCCUCGCUGGCGCCGGCUGGGCAACAUUCCGAGGGGACCGUCCCCUCGGUAAUGGCGAAUGGGACCCA", "note": "[C3G G6A]", "self-cleavage": 0.0923}
{"variant": "GGCCGGCAUGGUCCCAGCCUCCUCGCUGGCGCCGGCUGGGCACCACUCCGAGGGGACCGUCCCCUCGGUAAUGGCGAAUGGGACCCA", "note": "[A43C U46C]", "self-cleavage": 0.435}
{"variant": "GGCCGGCAUGGUCCCAGCCUCCUCGCUGGCGCCGGCUGGGCAACAUUCCGAGGCGACCGCCCCCUCGGUAAUGGCGAAUGGGACCCA", "note": "[G54C U60C]", "self-cleavage": 1.22}
{"variant": "GGCCGGCAUGGUCACAGCCUCCUCGCUGGCGCCGGCUGCGCAACAUUCCGAGGGGACCGUCCCCUCGGUAAUGGCGAAUGGGACCCA", "note": "[C14A G39C]", "self-cleavage": 0.0615}
{"variant": "GGCCGGCUUGGUCCCAGCCUCCUCGCUGGCGCCGGCGGGGCAACAUUCCGAGGGGACCGUCCCCUCGGUAAUGGCGAAUGGGACCCA", "note": "[A8U U37G]", "self-cleavage": 0.222}
{"variant": "GGCCGGCAUGGUCCCAGCCUCCUCGCUGGCGCCGGCUGGGCAACAUUCCGAGGGGACCGUCCCCUCGUCAAUGGCGAAUGGGACCCA", "note": "[G68U U69C]", "self-cleavage": 0.935}
{"variant": "GGCCGGCAUGGUCCCAGCCUCCUCGCUGGCGCCGGCUGGGCAACAUUCCGAGGGGACCUUGCCCUCGGUAAUGGCGAAUGGGACCCA", "note": "[G59U C61G]", "self-cleavage": 1.2}
{"variant": "GGCCGGCAUGGUCCCAGCCUCCUCGCUGGCGCCGGCUGGGCAACAUUCCGAGGGCACCGUCCCCACGGUAAUGGCGAAUGGGACCCA", "note": "[G55C U65A]", "self-cleavage": 0.88}
{"variant": "GGCCGGCAUGGUCCCGGCCUCCUCGCUGGCGCCGGCUGGGCAACAUUCCGAGGGGACCGUCCCCUCUGUAAUGGCGAAUGGGACCCA", "note": "[A16G G67U]", "self-cleavage": 0.831}
{"variant": "GGCCGGCAUGGUCCCAGCCUCCUCUCUGGCGCCGGCUGGGCAACAUUCCGAGGGGACCGUCCCCUCGGUAAUGGCUAAUGGGACCCA", "note": "[G25U G76U]", "self-cleavage": 0.389}
{"variant": "GGCCGGCAUGGGCCCAGCCUCCUCGCUGGCGCCGGCUGGGCAACGUUCCGAGGGGACCGUCCCCUCGGUAAUGGCGAAUGGGACCCA", "note": "[U12G A45G]", "self-cleavage": 0.959}
